Data reported in patent publication US20230181756A1, “CCR7 ANTIBODY DRUG CONJUGATES FOR TREATING CANCER” (Novartis AG, priority 2020, published 2023).

What was measured:
[1] = test system: CCR7 and CD20 expressing JVM2 cells; assay: surrogate ADCC reporter assay (Jurkat-V158 effector cells); assay type: cell-based; conditions: JVM2 target cells and Jurkat-V158 effector cells
Protocol: Capacity of candidate antibodies to mediate ADCC was assessed using a surrogate ADCC reporter assay. CCR7 and CD20 expressing JVM2 cells were used as target cells. JVM2 cells were washed and re-suspended at 8×10^4 cells/ml cells/ml. Effector cells in this assay were a Jurkat cell line stably expressing CD16V158 and an NFAT dependent luciferase reporter (Jurkat-V158); expression of luciferase is a surrogate for canonical ADCC signaling through CD16. Briefly, Jurkat-V158 cells grown in suspension were spun down to remove spent media, the pellet was resuspended in assay media and adjusted to 1.6×10^6 cells/ml cells/mL. Mix equal volumes of effector and target cells to make a master mix of cells yielding a target to effector cell ratio of 1:5 or 1:20. A titration of antibody was diluted in assay media with a final top concentration of 50 ug/mL in the assay well. 12.5 uL of Ab solution was added to a 384 well round bottom plate and then 12.5 ul of the master cell mix was added. Antibody and cells were mixed well by pipetting and incubated for 4 hours at 37° C. in 5% CO2. Following incubation, 15 uL of Bright Glo substrate (Promega #G7572) was added to each well and shaken for 5 min at RT at 1050 rpm. Luminescent signal was read on the Envision plate reader (Perkin Elmer). […]

CCR8 (CHO-CCR8) = biological target: T1, CCR8 (CHO-CCR8) (Homo sapiens, UniProt P51685); assay: FACS binding, selectivity (CCR7 paralogs)
T1 construct: expressed in transfected cells; host or cells: CHO
Protocol: (§1) The affinity of various antibodies and ADCs to CCR7 and its species orthologues was determined using FACS. Purified IgGs were titrated to determine EC50 values for binding to cell surface expressed CCR7.
(§2) For this purpose, CCR7 positive cells were harvested (adherent cells were detached with Accutase), washed twice with FACS buffer (PBS/3% FCS/0.02% sodium azide) and diluted to approximately 2×10^6 cells/ml in FACS buffer. All subsequent steps were done on ice to prevent internalization of the receptor. 100 μl cell suspension/well were transferred into 96-well U-bottom plates (Falcon). 2×10^5 cells/well were incubated with a serial dilution of antibody concentrations of the anti-CCR7 antibody-of-interest ranging across several logs, starting at a high of 100 nM for 60 minutes at 4° C., gently shaking. […] After a final wash, cells were resuspended in 100 μl of FACS buffer containing 0.2 μg/ml DAPI followed by readout on the flow cytometry machine (BD LSRFortessa Cell Analyzer; Cat #647177). Mean fluorescence intensity (MFI) of live, single cells was calculated in Flowjo 10.0.8 and exported into Graphpad Prism6 for EC50 determination.
(§3) Selectivity was assessed by measuring apparent binding affinities to isogenic cell pairs engineered to overexpress CCR7 as well as cell lines expressing CCR7 paralogs, e.g., CCR9, CCR6, CXCR4 and CCR8.

CXCR4 (HEK293-CXCR4) = biological target: T2, CXCR4 (HEK293-CXCR4) (Homo sapiens, UniProt P61073); assay: FACS binding, selectivity (CCR7 paralogs)
T2 construct: expressed in transfected cells; host or cells: HEK293
Protocol: as §1, §2, §3

[2] = biological target: T3, human CCR7 (NIH3T3.hCCR7 cells) (Homo sapiens, UniProt P32248); assay: FACS binding to cell surface expressed CCR7
T3 construct: Full length human, cyno and mouse CCR7 genes were synthesized; expressed in transfected cells; host or cells: NIH/3T3 (retroviral transduction)
T3 sequence (P32248 25-378): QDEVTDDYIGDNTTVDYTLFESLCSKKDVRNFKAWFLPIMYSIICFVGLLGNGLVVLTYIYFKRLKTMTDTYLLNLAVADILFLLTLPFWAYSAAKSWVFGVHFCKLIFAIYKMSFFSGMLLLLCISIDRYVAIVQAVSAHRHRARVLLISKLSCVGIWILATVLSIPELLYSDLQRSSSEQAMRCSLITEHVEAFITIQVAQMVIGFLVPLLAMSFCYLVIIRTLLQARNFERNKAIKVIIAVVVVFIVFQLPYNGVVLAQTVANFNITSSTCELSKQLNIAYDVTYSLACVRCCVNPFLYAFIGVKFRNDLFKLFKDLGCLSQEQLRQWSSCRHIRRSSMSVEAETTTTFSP
Protocol: as §1, §2
Selectivity was assessed by measuring apparent binding affinities to isogenic cell pairs engineered to overexpress CCR7 as well as cell lines expressing CCR7 paralogs, e.g., CCR9, CCR6, CXCR4 and CCR8. […]

[3] = test system: PF382 cells (CCR7−/CCR9+/CCR6+); assay: FACS binding, selectivity
Protocol: as §1, §2, §3

NIH3T3 cells = assay: FACS binding, selectivity
Protocol: as §1, §2, §3

KE97 = assay: ADC cell viability assay (CellTiter-Glo, four days); assay type: cell-based; conditions: KE97, CCR7 receptor levels ~100,000
Protocol: (§4) Cytotoxic effects after binding of directly conjugated antibodies (ADCs) with various payloads and their internalization into CCR7(+) cells were studied by assessing cell viability after four days of treatment. Three fold dilutions of the ADCs were added to 384-well bottom white plates in triplicates ([…]). […] Cells were harvested (adherent cells were detached with Accutase) and resuspended to approximately 2×10^4 cells/ml. Cells were added to 384-well plates on top of the antibody (20 μl/well). The plates were incubated for four days at 37° C. and 5% CO2. Subsequently, 20 µl/well of CellTiter-Glo solution (CellTiter-Glo® Luminescent Cell Viability Assay; Promega, #G7571) was prepared and added to the cells. Cell viability was determined by the luminescence signal, which was measured after 10 min of incubation at 22° C. and 400 rpm with the Envision reader. IC50 values were calculated using the Graphpad Prism software.

DEL = assay: as above; assay type: cell-based; conditions: CCR7 receptor levels ~100,000
Protocol: as §4

DND-41 = assay: as above; assay type: cell-based; conditions: DND-41 (T cell leukemia), CCR7 receptor levels 1,700
Protocol: as §4
(§5) To assess the ADCs for target-specificity and receptor-level dependency, ADC activity was tested across cell lines with different CCR7 receptor levels. […] Cell lines were chosen based on similar sensitivity to payload.

CML-T1 = assay: as above; assay type: cell-based; conditions: CML-T1, CCR7 receptor levels ~29,000
Protocol: as §4, §5

NCI-H82 = assay: as above; assay type: cell-based; conditions: NCI-H82 (Small cell lung cancer), CCR7 receptor levels 0
Protocol: as §4, §5

SR786 = assay: as above; assay type: cell-based; conditions: SR786, CCR7 receptor levels ~28,000
Protocol: as §4, §5

T2 sequence (P61073 whole entry, species assumed): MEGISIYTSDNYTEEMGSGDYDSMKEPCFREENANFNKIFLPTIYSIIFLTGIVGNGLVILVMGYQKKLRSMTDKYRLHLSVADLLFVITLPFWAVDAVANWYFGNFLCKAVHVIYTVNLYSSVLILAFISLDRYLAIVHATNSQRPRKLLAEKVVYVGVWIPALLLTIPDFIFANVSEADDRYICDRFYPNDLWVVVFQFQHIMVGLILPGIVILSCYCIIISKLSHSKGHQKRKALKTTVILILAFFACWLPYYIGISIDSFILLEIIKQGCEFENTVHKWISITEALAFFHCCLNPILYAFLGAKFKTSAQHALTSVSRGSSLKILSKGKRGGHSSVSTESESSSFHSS
T1 sequence (P51685 whole entry, species assumed): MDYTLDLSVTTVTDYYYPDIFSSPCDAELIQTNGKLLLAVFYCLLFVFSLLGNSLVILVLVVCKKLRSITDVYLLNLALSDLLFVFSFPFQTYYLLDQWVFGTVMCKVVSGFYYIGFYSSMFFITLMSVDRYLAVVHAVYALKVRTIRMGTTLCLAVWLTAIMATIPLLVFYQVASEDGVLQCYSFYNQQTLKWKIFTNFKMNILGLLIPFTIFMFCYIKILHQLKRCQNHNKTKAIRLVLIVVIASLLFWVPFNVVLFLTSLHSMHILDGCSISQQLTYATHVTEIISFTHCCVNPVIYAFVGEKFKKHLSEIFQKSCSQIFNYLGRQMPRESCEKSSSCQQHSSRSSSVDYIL

B1: 121G12 humanized CysMab: humanized anti-CCR7 antibody 121G12, CysMab, Fc wild type (antibody, V domains shown)
VH: EVQLVESGGGLVKPGGSLRLSCAASGFTFSTYAMSWVRQAPGKGLEWVATISDAGSYSYYPDNVKGRFTISRDNAKNSLYLQMNSLRAEDTAVYYCARRGSRYEEYYVMDYWGQGTTVTVSS
VL: EIVLTQSPATLSVSPGERVTLSCRASQSISNNLHWYQQKPGQAPRLLIKYASQSISGIPARFSGSGSGTDFTLTISSVEPEDFGVYFCQQSSSWLTFGQGTKLEIK
For B1, the “ADCC activity; IC50 (nM)” value [1] was “Yes, but insufficient”, the “Apparent FACS binding (at 5 ug/ml)” value (CCR8 (CHO-CCR8)) was “No binding” and the “Apparent FACS binding (at 5 ug/ml)” value (CXCR4 (HEK293-CXCR4)) was “No binding”. The “Apparent FACS binding (at 5 ug/ml)” value [2] was “Binding”, the “Apparent FACS binding (at 5 ug/ml)” value [3] was “No binding” and the “Apparent FACS binding (at 5 ug/ml)” value (NIH3T3 cells) was “No binding”.

B2: 674J13.CysMab.DAPA.AURIX2 (conjugate)
heavy: DVQLQESGPGLVKPSQTLSLTCTVSGYSITSGYSWHWIRQHPGKGLEWMAHIHSSGSTNYNPSLKSRITISRDTSKNQFSLKLSSVTAADTAVYYCARGGVQAFAYWGQGTLVTVSSASTKGPSVFPLAPSSKSTSGGTAALGCLVKDYFPCPVTVSWNSGALTSGVHTFPAVLQSSGLYSLSSVVTVPSSSLGTQTYICNVNHKPSNTKVDKRVEPKSCDKTHTCPPCPAPELLGGPSVFLFPPKPKDTLMISRTPEVTCVVVAVSHEDPEVKFNWYVDGVEVHNAKTKPREEQYNSTYRVVSVLTVLHQDWLNGKEYKCKVSNKALAAPIEKTISKAKGQPREPQVYTLPPSREEMTKNQVSLTCLVKGFYPCDIAVEWESNGQPENNYKTTPPVLDSDGSFFLYSKLTVDKSRWQQGNVFSCSVMHEALHNHYTQKSLSLSPGK
light: EIVLTQSPATLSASPGERVTMSCSASSSVIYMHWYQQKPGQAPRRWIYDTSKLASGVPARFSGSGSGTDYTLTISSMEPEDAAVYYCQQWSSNPLTFGQGTKLEIKRTVAAPSVFIFPPSDEQLKSGTASVVCLLNNFYPREAKVQWKVDNALQSGNSQESVTEQDSKDSTYSLSSTLTLSKADYEKHKVYACEVTHQGLSSPVTKSFNRGEC
B2 was tested, and the “AMAX, cell viability assay” value (KE97) was over 95%, the “AMAX, cell viability assay” value (DEL) was over 95% and the “AMAX, cell viability assay” value (DND-41) was under 20% AMAX. The “AMAX, cell viability assay” value (CML-T1) was 60%, the “ADC activity in cell viability assay; IC50 (nM)” value (NCI-H82) was “No killing” and the “AMAX, cell viability assay” value (SR786) was 90%.
